Reference: patent US20240366756A1, “COMBINATIONS AND USES THEREOF” (Incyte Corporation, priority 2011, published 2024)
Marks after values point to notes of the source that are not given here.

System: RAMOS human Burkitt's lymphoma cells
Test: Human Non-Hodgkin RAMOS tumor in SCID mice, survival model
Format: in vivo
Conditions: for Median Survival (Days Post-Inoculation): 3 mg/kg i.v., treatment related deaths excluded; for Survival, pairwise comparison (Holm-Sidak) vs. Group 2: Group 2 = Bendamustine (13 mg/kg); for Survival, pairwise comparison (Holm-Sidak) vs. Group 3: Group 3 = Bendamustine (16 mg/kg); for Survival, pairwise comparison (Holm-Sidak) vs. Group 5: Group 5 = MOR00208/Bendamustine (3/13 mg/kg); for Survival, pairwise comparison (Holm-Sidak) vs. Group 6: Group 6 = MOR00208/Bendamustine (3/16 mg/kg); for Survival, pairwise comparison (Holm-Sidak) vs. Group 1: Group 1 = MOR00208 (3 mg/kg)
Description: Cyclophosphamide (Baxter, Lot. No. 1A548C); Vehicle Control: 0.9% sodium chloride, 25 mg/ml mannitol, pH 6.5-6.8 (adjusted with 0.01 M NaOH); SCID Mice (University of Adelaide, Waite Campus, Urrbaraie, SA, Australia, Strain C.B.-17-Igh-1^b-Prkdc^scid); RAMOS human Burkitt's lymphoma cells (ATCC number CRL-1596); Ref_mAb_33_IgG_Xen (10 mg/mL in PBS, referred to as Ref_mAb_33); Bendamustine (Mundipharma, Lot No. 83889).
SCID mice were pre-treated with Cyclophosphamide (75 mg/kg, i.p., twice daily) for two days prior to RAMOS cell inoculation (Day −2 and −1). On the day of inoculation (Day 0), the mice were separated into seven groups of ten mice each, and inoculated with 1×10^6 RAMOS cells each intravenously into the tail vein. The planned dosing regimen for each group is shown in Table 5 and commenced on Day 3. The study duration was 60 days.
From the raw data shown in Table 6, both the median survival in days and median increase in lifespan were calculated. All treatment related deaths were excluded in the calculations.
Median % Increased Lifespan (ILS) is calculated as follows: […]
The classification of the MOR000208/Bendamustine combination therapy (combo) effect was evaluated by comparing the ILS of the combination with the added ILS of the respective monotherapies:
Synergy/Potentiation*: ILSCombo>ILSMOR00208 3 mg/kg+ILSBendamustine. Synergistic effects are classified as potentiation if at least one of the monotherapies has no effect. Additivity: ILSCombo=ILSMOR00208 3 mg/kg+ILSBendamustine. Antagonism: ILSCombo<ILSMOR00208 3 mg/kg+ILSBendamustine.
In addition to an analysis of the data for purposes of identifying synergy, the following statistical analysis was also completed. Statistical analyses were carried out using the median values. Any animal that died unexpectedly or was culled prior to Day 17 of the study in the Test Article treatment groups was excluded from survival analysis calculation. The death/culling of these animals was attributed to compound toxicity rather than disease progression as they occurred well in advance of the first deaths in the Vehicle Control animals. A survival curve was created using the product limit of Kaplan and Meier, and survival curves compared using the log-rank (Mantel-Cox) test. Where significant differences were found, All Pairwise Multiple Comparison (Holm-Sidak Test) was performed. Comparison was done between all groups. In addition the comparison of the following groups were summarised in separate figures for each test article: Vehicle Control/Ref_mAb (group 10) against Bendamustine groups (Groups 2, 3 and 4) and Vehicle Control/Ref_mAb (group 10) against Combination groups (Groups 5 and 6) or respective MOR00208 monotherapy group (group 1). A p value of less than 0.05 was considered significant.

[1] = Table 8, listed as Bendamustine = 13 mg/kg
[2] = Table 9, listed as combination = 3/13 mg/kg
[3] = Table 10, listed as combination = 3/16 mg/kg
[4] = untitled repeat of Table 8, listed as Bendamustine = 13 mg/kg

## MOR00208: anti-CD19 antibody; variable domains shown in FIG. 3, heavy and light chain Fc regions in FIG. 4
  Median Survival (Days Post-Inoculation): 32^a Days Post-Inoculation
3 mg/kg, vs. vehicle control/Ref_mAb_33
  Median % Increase in Lifespan (ILS): 25.5%
Table 8
  Survival, pairwise comparison (Holm-Sidak) vs. Group 2: ***Yes (***Yes: There is a statistically significant difference (p < 0.001).)
[1]
  Survival, pairwise comparison (Holm-Sidak) vs. Group 3: ***Yes (***Yes: There is a statistically significant difference (p < 0.001).)
[2]
  Survival, pairwise comparison (Holm-Sidak) vs. Group 2: ***Yes (***Yes: There is a statistically significant difference (p < 0.001).)
Table 9
  Survival, pairwise comparison (Holm-Sidak) vs. Group 5: *Yes (*Yes: There is a statistically significant difference (p < 0.05).)
[3]
  Survival, pairwise comparison (Holm-Sidak) vs. Group 3: ***Yes (***Yes: There is a statistically significant difference (p < 0.001).)
Table 10
  Survival, pairwise comparison (Holm-Sidak) vs. Group 6: ***Yes (***Yes: There is a statistically significant difference (p < 0.001).)
Untitled repeat of Table 8
  Survival, pairwise comparison (Holm-Sidak) vs. Group 2: ***Yes (***Yes: There is a statistically significant difference (p < 0.001).)
[4]
  Survival, pairwise comparison (Holm-Sidak) vs. Group 3: ***Yes (***Yes: There is a statistically significant difference (p < 0.001).)

B1: RefmAb33: antibody specific for RSV, used as isotype control, shares the same Fc region as MOR00208 (SEQ ID NO: 8, 9) (antibody)
heavy: QVTLRESGPALVKPTQTLTLTCTFSGFSLSTAGMSVGWIRQPPGKALEWLADIWWDDKKHYNPSLKDRLTISKDTSKNQVVLKVTNMDPADTATYYCARDMIFNFYFDVWGQGTTVTVSSASTKGPSVFPLAPSSKSTSGGTAALGCLVKDYFPEPVTVSWNSGALTSGVHTFPAVLQSSGLYSLSSVVTVPSSSLGTQTYICNVNHKPSNTKVDKKVEPKSCDKTHTCPPCPAPELLGGPDVFLFPPKPKDTLMISRTPEVTCVVVDVSHEDPEVQFNWYVDGVEVHNAKTKPREEQFNSTFRVVSVLTVVHQDWLNGKEYKCKVSNKALPAPEEKTISKTKGQPREPQVYTLPPSREEMTKNQVSLTCLVKGFYPSDIAVEWESNGQPENNYKTTPPMLDSDGSFFLYSKLTVDKSRWQQGNVFSCSVMHEALHNHYTQKSLSLSPGK
light: DIQMTQSPSTLSASVGDRVTITCSASSRVGYMHWYQQKPGKAPKLLIYDTSKLASGVPSRFSGSGSGTEFTLTISSLQPDDFATYYCFQGSGYPFTFGGGTKVEIKRTVAAPSVFIFPPSDEQLKSGTASVVCLLNNFYPREAKVQWKVDNALQSGNSQESVTEQDSKDSTYSLSSTLTLSKADYEKHKVYACEVTHQGLSSPVTKSFNRGEC
modifications: Heavy chain RefMab33; Light chain RefMab33
  Median Survival (Days Post-Inoculation): 25.5 Days Post-Inoculation
Table 8
  Survival, pairwise comparison (Holm-Sidak) vs. Group 1: ***Yes (***Yes: There is a statistically significant difference (p < 0.001).)
  Survival, pairwise comparison (Holm-Sidak) vs. Group 2: *Yes (*Yes: There is a statistically significant difference (p < 0.05).)
[1]
  Survival, pairwise comparison (Holm-Sidak) vs. Group 3: No (No: There is no statistically significant difference (p ≥ 0.05).)
Table 9
  Survival, pairwise comparison (Holm-Sidak) vs. Group 1: ***Yes (***Yes: There is a statistically significant difference (p < 0.001).)
  Survival, pairwise comparison (Holm-Sidak) vs. Group 5: ***Yes (***Yes: There is a statistically significant difference (p < 0.001).)
[2]
  Survival, pairwise comparison (Holm-Sidak) vs. Group 2: *Yes (*Yes: There is a statistically significant difference (p < 0.05).)
Table 10
  Survival, pairwise comparison (Holm-Sidak) vs. Group 1: ***Yes (***Yes: There is a statistically significant difference (p < 0.001).)
  Survival, pairwise comparison (Holm-Sidak) vs. Group 6: ***Yes (***Yes: There is a statistically significant difference (p < 0.001).)
[3]
  Survival, pairwise comparison (Holm-Sidak) vs. Group 3: No (No: There is no statistically significant difference (p ≥ 0.05).)
Untitled repeat of Table 8
  Survival, pairwise comparison (Holm-Sidak) vs. Group 1: ***Yes (***Yes: There is a statistically significant difference (p < 0.001).)
  Survival, pairwise comparison (Holm-Sidak) vs. Group 2: *Yes (*Yes: There is a statistically significant difference (p < 0.05).)
[4]
  Survival, pairwise comparison (Holm-Sidak) vs. Group 3: No (No: There is no statistically significant difference (p ≥ 0.05).)
